In the supplement of paper PMC9170038:

Test system: MS2 coat protein
Test: apparent KD of MS2 coat protein; designed switch direction (-1 OFF switch, 1 ON switch): 1; higher = weaker reporter binding
Summary of the method: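 For each design, the apparent KD is the median over clusters of curves fitted to normalised cluster fluorescence. Clusters held RNA switches with common flanks, transcribed on Illumina chips by stalled E. coli RNA polymerase. These were titrated with SNAP-549-labelled MS2 coat protein, doubling from 0.7 or 1.5 nM to 3 µM, without input, with 200 uM small-molecule ligand, or with an oligonucleotide input.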

[1] = input ligand: microRNA oligo, concentration not stated
[2] = Eterna round: R95, input ligand: FMN 200 uM
[3] = Eterna round: R95, input ligand: microRNA oligo, concentration not stated
[4] = Eterna round: R95, input ligand: none

Sequence: GGUAUUGACACAGGAUAUGCUUACGAAACGUAAGCAGAAGGGUGAACAUGAGGAUCACCCAUGUAGGUACCAGGGCGUGAGCCC [JL SSNG1 1.75] (Eterna round: R96, puzzle: Same State NG 1)
- apparent KD of MS2 coat protein (input ligand: FMN 200 uM): 151 nM
- apparent KD of MS2 coat protein [1]: 694 nM
- apparent KD of MS2 coat protein (input ligand: none): 1470 nM

Sequence: GGUCCAGCCUGAGCUGGACAAAAGCAUGUACAUGAGGAUCACCCAUGUCAUGUACAAGCUUUUUGCUCGUCAAAAGG [Mat - hsa-mir-208a - 102] (puzzle: Sensor for hsa-mir-208a)
- apparent KD of MS2 coat protein [2]: 54.3 nM
- apparent KD of MS2 coat protein [3]: 16 nM
- apparent KD of MS2 coat protein [4]: 89.5 nM

Sequence: GGUCCAGCCUGAGCUGGACAAAAGCAUGUACAUGAGGAUCACCCAUGUCAUGUACAAGCUUUUUGCUCGUCAUAAAG [Mat - hsa-mir-208a - 97] (puzzle: Sensor for hsa-mir-208a)
- apparent KD of MS2 coat protein [2]: 228 nM
- apparent KD of MS2 coat protein [3]: 18.2 nM
- apparent KD of MS2 coat protein [4]: 334 nM

Sequence: GGUCCAGCCUGAGCUGGACAAAAGCAUGUACAUGAGGAUCACCCAUGUCGUGUACAAGCUUUUUGCUCGUCUUAAAA [JL mod - D87 - 5] (puzzle: Sensor for hsa-mir-208a)
- apparent KD of MS2 coat protein [2]: 215 nM
- apparent KD of MS2 coat protein [3]: 13.9 nM
- apparent KD of MS2 coat protein [4]: 296 nM

Sequence: GGUCCAGCCUGAGCUGGACAGAAGCAUGUACAUGAGGAUCACCCAUGUCAUGUACAAGCUUUUUGCUCGUCUUAAAA [JL mod - D87 - 1] (puzzle: Sensor for hsa-mir-208a)
- apparent KD of MS2 coat protein [2]: 439 nM
- apparent KD of MS2 coat protein [3]: 13.2 nM
- apparent KD of MS2 coat protein [4]: 498 nM

Sequence: GGUCCAGCCUGAGCUGGACCACAGCAUGUACAUGAGGAUCACCCAUGUCAUGUACAAGCUUUUUGUUUAACUUAAAA [Sensorship 12 - Jieux - Sensor for hsa-mir-208a] (puzzle: Sensor for hsa-mir-208a)
- apparent KD of MS2 coat protein [2]: 211 nM
- apparent KD of MS2 coat protein [3]: 18.2 nM
- apparent KD of MS2 coat protein [4]: 287 nM

Sequence: GGUCCAGCCUGAGCUGGACCGAAGCGUGUACAUGAGGAUCACCCAUGUCAUGUACAGGCUUUUUGCUCGUCUUAUUG [JL-shm-2.11 JL Mod] (puzzle: Sensor for hsa-mir-208a)
- apparent KD of MS2 coat protein [2]: 46.5 nM
- apparent KD of MS2 coat protein [3]: 20.6 nM
- apparent KD of MS2 coat protein [4]: 72.9 nM

Sequence: GGUCCAGCUUUUGCUGGUCCUUCGCUUGCACAUGAGGAUCACCCAUGUCGUGUACAUGCUUGGUGCCCGUCUUUUUU [Photon Torp-16] (puzzle: Sensor for hsa-mir-208a)
- apparent KD of MS2 coat protein [2]: 137 nM
- apparent KD of MS2 coat protein [3]: 44.9 nM
- apparent KD of MS2 coat protein [4]: 229 nM

Sequence: GGUCCAUCAUGAGGAUAUGGCACCUUAUUGGUGCCAGAAGGCAUGUAAAUUAUAAUAAACAUGAGGAUCACCCAUGUAUGGACC [Eli NG1ss - 96] (Eterna round: R96, puzzle: Same State NG 1)
- apparent KD of MS2 coat protein (input ligand: FMN 200 uM): 439 nM
- apparent KD of MS2 coat protein [1]: 55.5 nM
- apparent KD of MS2 coat protein (input ligand: none): 137 nM

Sequence: GGUCCGGCCUGAGCUGGACCGAAGCAUGUACAUGAGGAUCACCCAUGUCAUGUACAGGCUUUUUGCUCGUCUUAUUG [JL-shm-2.13 JL Mod] (puzzle: Sensor for hsa-mir-208a)
- apparent KD of MS2 coat protein [2]: 705 nM
- apparent KD of MS2 coat protein [3]: 14.4 nM
- apparent KD of MS2 coat protein [4]: 683 nM

Sequence: GGUCCGGCCUGAGCUGGACCGGAGCAUGUACAUGAGGAUCACCCAUGUCAUGUACAGGCUUCUUGCUCGUCUUGUUG [JL-shm-2.16 JL Mod] (Eterna round: R96, puzzle: Sensor for hsa-mir-208a)
- apparent KD of MS2 coat protein (input ligand: FMN 200 uM): 282 nM
- apparent KD of MS2 coat protein [1]: 14.8 nM
- apparent KD of MS2 coat protein (input ligand: none): 130 nM

Sequence: GGUCCGGCCUGAGCUGGACCGGAGCAUGUACAUGAGGAUCACCCAUGUCAUGUACAGGCUUCUUGCUCGUCUUGUUG [JL-shm-2.16 JL Mod] (puzzle: Sensor for hsa-mir-208a)
- apparent KD of MS2 coat protein [2]: 314 nM
- apparent KD of MS2 coat protein [3]: 15 nM
- apparent KD of MS2 coat protein [4]: 421 nM

Sequence: GGUGCAAUAAACGCCUACAUGAGGAUCACCCAUGUAUGUAGGCAGGAUAUCGUUUGCAAAGCAAACGAGAAGGGCUAUAGUACC [Mat - Same State NG 3 - JL Mod - D44] (Eterna round: R96, puzzle: Same State NG 3)
- apparent KD of MS2 coat protein (input ligand: FMN 200 uM): 56.2 nM
- apparent KD of MS2 coat protein [1]: 123 nM
- apparent KD of MS2 coat protein (input ligand: none): 161 nM

Sequence: GGUGCACGGUGACGUGCACGGUAGUGCGUACAUGAGGAUCACCCAUGUCAUGUAGGAGUUACUUGUUCGUCUUGAAC [SENSOR #2] (puzzle: Sensor for hsa-mir-208a)
- apparent KD of MS2 coat protein [2]: 28.7 nM
- apparent KD of MS2 coat protein [3]: 22.8 nM
- apparent KD of MS2 coat protein [4]: 25.4 nM

Sequence: GGUGGGUUACUACCAACACAUGAGGAUCACCCAUGUUUUGGGAAGGAUAUGGUACCUAUUUGGUACCAGAAGGUCCCGUUGGUG [salish99_SSNG3_r04_705] (Eterna round: R96, puzzle: Same State NG 3)
- apparent KD of MS2 coat protein (input ligand: FMN 200 uM): 28.7 nM
- apparent KD of MS2 coat protein [1]: 25.8 nM
- apparent KD of MS2 coat protein (input ligand: none): 36 nM

Sequence: GGUUUAGUCGAGUGCCAUUCCACUCGAAAACAUGAGGAUCACCCAUGUUUGGGACAAGCUUUGCUCCUCGUCUUUCC [Inertequ] (puzzle: Sensor for hsa-mir-208a)
- apparent KD of MS2 coat protein [2]: 259 nM
- apparent KD of MS2 coat protein [3]: 75.8 nM
- apparent KD of MS2 coat protein [4]: 371 nM

Sequence: GUAAGUUCGAUGCUCGUCUCUCCGUACAAACAUGAGGAUCACCCAUGUGAUCGGGAAGUAGCCCGAUCAGUAUGGCC [Teonveenes] (puzzle: Sensor for hsa-mir-208a)
- apparent KD of MS2 coat protein [2]: 34.8 nM
- apparent KD of MS2 coat protein [3]: 24.3 nM
- apparent KD of MS2 coat protein [4]: 38.2 nM

Sequence: GUAAGUUCGAUGCUCGUCUCUCCGUACAAACAUGAGGAUCACCCAUGUGAUCGGGCAGUAGCCCGAUCAGUAUGGCC [Xearlaxe] (puzzle: Sensor for hsa-mir-208a)
- apparent KD of MS2 coat protein [2]: 44 nM
- apparent KD of MS2 coat protein [3]: 22.6 nM
- apparent KD of MS2 coat protein [4]: 47 nM

Sequence: GUACAGAUUAUAGGAUAUCACGUCGAUUAGACGUGAGAAGGAUAAUCACACAUGAAUAUUAAUACAUGAGGAUCACCCAUGUAC [SSNG1/17-A2] (Eterna round: R96, puzzle: Same State NG 1)
- apparent KD of MS2 coat protein (input ligand: FMN 200 uM): 12.9 nM
- apparent KD of MS2 coat protein [1]: 12.9 nM
- apparent KD of MS2 coat protein (input ligand: none): 17 nM

Sequence: GUAGCAUACCGAGGAUAUUCAUAUAAUAAAUAAACAUGAGGAUCACCCAUGUGGCGAAAGCCUUGGGAGAAGGCGGAAUGCUAC [Xeonanis - 20 Mod55] (Eterna round: R96, puzzle: Same State NG 2)
- apparent KD of MS2 coat protein (input ligand: FMN 200 uM): 20.7 nM
- apparent KD of MS2 coat protein [1]: 296 nM
- apparent KD of MS2 coat protein (input ligand: none): 486 nM

Sequence: GUAGCAUACCGAGGAUAUUCAUAUUACAUGAGGAUCACCCAUGUUAUAGGUCGAUUACGACCUUGGGAGAAGGCGGAAUGCUAC [Xeonanis - 20 Mod32] (Eterna round: R96, puzzle: Same State NG 2)
- apparent KD of MS2 coat protein [1]: 23 nM

Sequence: GUAGCAUACCGAGGAUAUUCAUUAAACAUGAGGAUCACCCAUGUAAAUUAUAGGCGAAAGCCUUGGGAGAAGGCGGAAUGCUAC [Xeonanis - 20 Mod72] (Eterna round: R96, puzzle: Same State NG 2)
- apparent KD of MS2 coat protein (input ligand: FMN 200 uM): 11 nM
- apparent KD of MS2 coat protein [1]: 11.3 nM
- apparent KD of MS2 coat protein (input ligand: none): 19.1 nM

Sequence: GUAGGACAUGAGGAUCACCCAUGUGGGAGGGAACGAGGAUAUGUGAAAGGAUUGAAGAGGACAGAAGGCGUGGAGG [JR_SS1_Sub026] (puzzle: Same State 1)
- apparent KD of MS2 coat protein [3]: 30.1 nM
